Measurements as given in patent US20240124560A1 (Scripps Research, published 2024).

What was measured:
HIV-1 Du156.12 Env [1] = biological target: HIV-1 Du156.12 Env (HIV-1 Du156.12); test: cell-based or functional assay
HIV-1 HxB2 Env [2] = biological target: T1, HIV-1 HxB2 Env (HIV-1 HxB2, UniProt P04578 33-856); test: cell-based or functional assay
HIV-1 HxB2 Env [3] = biological target: T1, HIV-1 HxB2 Env; test: BN-PAGE mobility shift of HxB2 Env with Fab, relative shift
HIV-1 Du156.12 Env [4] = biological target: HIV-1 Du156.12 Env (HIV-1 Du156.12); test: cell-based or functional assay; remark: listed apart in the source
HIV-1 HxB2 Env [5] = biological target: T1, HIV-1 HxB2 Env; test: cell-based or functional assay; remark: listed apart in the source
[6] = biological target: HIV-2 Env (parental virus of the chimeras) (HIV-2); test: cell-based or functional assay
HIV-1 Du156.12 Env [7] = biological target: HIV-1 Du156.12 Env (HIV-1 Du156.12); test: cell-based or functional assay; remark: listed apart in the source
HIV-2 C3 chimera Env = HIV-2 C3 chimera Env (HIV-2 (HIV-1 MPER) chimera); test: cell-based or functional assay
HIV-2 C4 chimera Env = HIV-2 C4 chimera Env (HIV-2 (HIV-1 MPER) chimera); test: cell-based or functional assay
HIV-2 C1 chimera Env = HIV-2 C1 chimera Env (HIV-2 (HIV-1 MPER) chimera); test: cell-based or functional assay

B1: PGZL1_gVmDmJ F100A (antibody, V domains shown)
V domain 1: QVQLVQSGAEVKKPGSSVKVSCKASGGTFSSYAISWVRQAPGQGLEWMGGIIPIFGTANYAQKFQGRVTITADKSTSTAYMELSSLRSEDTAVYYCAREGEGWAGKPLRAFEFWGQGTVITVSS
V domain 2: not shown
HIV-1 Du156.12 Env [1]
  decrease in neutralization against the parent antibody: > 10 fold
HIV-1 HxB2 Env [2]
  decrease in neutralization against the parent antibody: > 10 fold

B2: PGZL1_gVgDgJ Fab (Fab, V domains shown)
VH: QVQLVQSGAEVKKPGSSVKVSCKASGGTFSSYAISWVRQAPGQGLEWMGGIIPIFGTANYAQKFQGRVTITADKSTSTAYMELSSLRSEDTAVYYCAREGEGWFGEPLRAFDVWGQGTVITVSS
VL: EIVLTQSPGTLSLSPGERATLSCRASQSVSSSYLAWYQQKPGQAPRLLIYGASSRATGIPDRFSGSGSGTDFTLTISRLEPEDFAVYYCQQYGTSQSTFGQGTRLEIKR
HIV-1 HxB2 Env [3]
  binding result: binds

B3: PGZL1_gVmDmJ_W99A (antibody, V domains shown)
V domain 1: QVQLVQSGAEVKKPGSSVKVSCKASGGTFSSYAISWVRQAPGQGLEWMGGIIPIFGTANYAQKFQGRVTITADKSTSTAYMELSSLRSEDTAVYYCAREGEGAFGKPLRAFEFWGQGTVITVSS
V domain 2: not shown
HIV-1 Du156.12 Env [1]
  decrease in neutralization against the parent antibody: > 10 fold
HIV-1 HxB2 Env [2]
  decrease in neutralization against the parent antibody: > 10 fold

B4: H4K3_SFS28EPE (antibody, V domains shown)
VH: KVQLVQSGAELKKPWSSVRVSCKASGGEPESYAFNWVRQAPGQRLEWLGGIVPLVSSTNYAQRFRGRVTISADRSTSTVYLEMTGLTSADTAVYFCAREGEGWFGRPLRAFEFWGQGTLVTVST
VL: EIVLTQSPGTFALSPGERATLSCRASQSVSGGALAWYQQKAGQAPRLLIYDTSGRATGVPGRFSGSGSETDFSLTISRLEPEDFAVYYCQQYGTSQSTFGQGTRLETR
HIV-1 Du156.12 Env [4]
  Fold Increase (neutralization IC50 over H4K3), Du156.12: 26.3 fold
  IC50, neutralization of Du156.12 pseudovirus: 2.89 µg/mL
HIV-1 HxB2 Env [5]
  Fold Increase (neutralization IC50 over H4K3), HxB2: 16.4 fold
  IC50, neutralization of HxB2 pseudovirus: 1.62 µg/mL

B5: PGZL1.H4K3 (antibody, V domains shown)
VH: KVQLVQSGAELKKPWSSVRVSCKASGGSFSSYAFNWVRQAPGQRLEWLGGIVPLVSSTNYAQRFRGRVTISADRSTSTVYLEMTGLTSADTAVYFCAREGEGWFGRPLRAFEFWGQGTLVTVST
VL: EIVLTQSPGTFALSPGERATLSCRASQSVSGGALAWYQQKAGQAPRLLIYGTSGRATGVPGRFSGSGSETDFSLTISRLEPEDFAVYYCQQYGTSQSTFGQGTRLETR
HIV-1 Du156.12 Env [4]
  IC50, neutralization of Du156.12 pseudovirus: 0.11 µg/mL
HIV-1 HxB2 Env [5]
  IC50, neutralization of HxB2 pseudovirus: 0.099 µg/mL
[6]
  IC50 (µg/ml), neutralization of HIV-2: > 10 µg/mL
HIV-1 Du156.12 Env [7]
  IC50 (µg/ml), neutralization of HIV-1 Du156.12: 0.27 µg/mL
HIV-2 C3 chimera Env
  IC50 (µg/ml), neutralization of chimeric virus: > 10 µg/mL
HIV-2 C4 chimera Env
  IC50 (µg/ml), neutralization of chimeric virus: 1.17 µg/mL

B6: H4K3_5M (antibody, V domains shown)
VH: KVQLVQSGAELKKPWSSVRVSCKASGGEPESYAFNWVRQAPGQRLEWLGGIVPLVSSTNYAQRFRGRVTISADPETSTVYLEMTGLTSADTAVYFCAREGEGWFGRPLRAFEFWGQGTLVTVST
VL: EIVLTQSPGTFALSPGERATLSCRASQSVSGGALAWYQQKAGQAPRLLIYDTSGRATGVPGRFSGSGSETDFSLTISRLEPEDFAVYYCQQYGTSQSTFGQGTRLETR
HIV-1 Du156.12 Env [4]
  Fold Increase (neutralization IC50 over H4K3), Du156.12: 84.5 fold
  IC50, neutralization of Du156.12 pseudovirus: 9.31 µg/mL
HIV-1 HxB2 Env [5]
  Fold Increase (neutralization IC50 over H4K3), HxB2: 37.7 fold
  IC50, neutralization of HxB2 pseudovirus: 3.72 µg/mL

B7: H4K3_RS73PE (antibody, V domains shown)
VH: KVQLVQSGAELKKPWSSVRVSCKASGGSFSSYAFNWVRQAPGQRLEWLGGIVPLVSSTNYAQRFRGRVTISADPETSTVYLEMTGLTSADTAVYFCAREGEGWFGRPLRAFEFWGQGTLVTVST
VL: EIVLTQSPGTFALSPGERATLSCRASQSVSGGALAWYQQKAGQAPRLLIYDTSGRATGVPGRFSGSGSETDFSLTISRLEPEDFAVYYCQQYGTSQSTFGQGTRLETR
HIV-1 Du156.12 Env [4]
  Fold Increase (neutralization IC50 over H4K3), Du156.12: 7.4 fold
  IC50, neutralization of Du156.12 pseudovirus: 0.814 µg/mL
HIV-1 HxB2 Env [5]
  Fold Increase (neutralization IC50 over H4K3), HxB2: 3 fold
  IC50, neutralization of HxB2 pseudovirus: 0.299 µg/mL

B8: PGZL1 (antibody, V domains shown)
VH: EVQLVQSGGEVKRPGSSVTVSCKATGGTFSTLAFNWVRQAPGQGPEWMGGIVPLFSIVNYGQKFQGRLTIRADKSTTTVFLDLSGLTSADTATYYCAREGEGWFGKPLRAFEFWGQGTVITVSS
VL: DVVMTQSPGTLSLSPGERATLSCRASQSVSGGALAWYQQKPGQAPRLLIYDTSSRPTGVPGRFSGSGSGTDFSLTISRLEPEDFAVYYCQQYGTSQSTFGQGTRLEIK
[6]
  IC50 (µg/ml), neutralization of HIV-2: > 10 µg/mL
HIV-1 Du156.12 Env [7]
  IC50 (µg/ml), neutralization of HIV-1 Du156.12: 0.623 µg/mL
HIV-2 C1 chimera Env
  IC50 (µg/ml), neutralization of chimeric virus: 0.98 µg/mL
HIV-2 C3 chimera Env
  IC50 (µg/ml), neutralization of chimeric virus: > 10 µg/mL
HIV-2 C4 chimera Env
  IC50 (µg/ml), neutralization of chimeric virus: 2.38 µg/mL

B9: PGZL1 Fab (Fab, V domains shown)
VH: EVQLVQSGGEVKRPGSSVTVSCKATGGTFSTLAFNWVRQAPGQGPEWMGGIVPLFSIVNYGQKFQGRLTIRADKSTTTVFLDLSGLTSADTATYYCAREGEGWFGKPLRAFEFWGQGTVITVSS
VL: DVVMTQSPGTLSLSPGERATLSCRASQSVSGGALAWYQQKPGQAPRLLIYDTSSRPTGVPGRFSGSGSGTDFSLTISRLEPEDFAVYYCQQYGTSQSTFGQGTRLEIK
notes: also called Fab PGZL1
HIV-1 HxB2 Env [3]
  binding result: binds

B10: PGZL1_F100A (antibody, V domains shown)
VH: QVQLVQSGGEVKRPGSSVTVSCKATGGTFSTLAFNWVRQAPGQGPEWMGGIVPLFSIVNYGQKFQGRLTIRADKSTTTVFLDLSGLTSADTATYYCAREGEGWAGKPLRAFEFWGQGTVITVSS
VL: DVVMTQSPGTLSLSPGERATLSCRASQSVSGGALAWYQQKPGQAPRLLIYDTSSRPTGVPGRFSGSGSGTDFSLTISRLEPEDFAVYYCQQYGTSQSTFGQGTRLEIK
HIV-1 Du156.12 Env [1]
  decrease in neutralization against the parent antibody: > 10 fold
HIV-1 HxB2 Env [2]
  decrease in neutralization against the parent antibody: > 10 fold

B11: PGZL1_W99A (antibody, V domains shown)
VH: QVQLVQSGGEVKRPGSSVTVSCKATGGTFSTLAFNWVRQAPGQGPEWMGGIVPLFSIVNYGQKFQGRLTIRADKSTTTVFLDLSGLTSADTATYYCAREGEGAFGKPLRAFEFWGQGTVITVSS
VL: DVVMTQSPGTLSLSPGERATLSCRASQSVSGGALAWYQQKPGQAPRLLIYDTSSRPTGVPGRFSGSGSGTDFSLTISRLEPEDFAVYYCQQYGTSQSTFGQGTRLEIK
HIV-1 Du156.12 Env [1]
  decrease in neutralization against the parent antibody: > 10 fold
HIV-1 HxB2 Env [2]
  decrease in neutralization against the parent antibody: > 10 fold
